Data taken from PMC6586375.

Biological target: His-tagged BspC labelled with the Monolith His-Tag Labeling Kit RED-tris-NTA 2nd Generation (Streptococcus agalactiae)
Experiment: MST; labelled His-tagged BspC constant at 10 nM, vimentin titrated 1:1 in 16 steps from 20 μM to 0 μM; standard capillaries, Monolith NT.115 Pico, 20% excitation power, 40% MST power; three independent experiments

Substance: vimentin purchased from Novus Biologicals (from UniProt P08670 1-466) (natural protein)
- Kd: 3.39 µM
